Test results reported in article PMC8154272, “Discovery of a New, Recurrent Enzyme in Bacterial Phosphonate Degradation: (R)-1-Hydroxy-2-aminoethylphosphonate Ammonia-lyase” (Biochemistry, 2021).

Tests used:
[1] = tested on: NC[C@H](O)P(=O)(O)O; experiment: purified protein; conditions: TEA-HCl pH 8.0, 25 °C, 5 mM MgCl2, 5 μM PLP, 0.07% BSA, 1,2-elimination
[2] = target: PhnX (Vibrio splendidus, UniProt A0ABV4LR11); experiment: 1H NMR, disappearance of PAA; type: biochemical; conditions: PAA generated in situ by PhnW or PbfA; 50 mM potassium phosphate pH 8.0, 100 mM KCl, 5 mM MgCl2, 25 °C

Row | Compound | Km [1] [µM] | kcat [1] [s^–1] | 1H NMR, disappearance of PAA [2]
1 | PbfA (Vibrio splendidus 12B01) | 430 ± 60 | 5.3 ± 0.3 | –
2 | O=CCP(=O)(O)O [PAA] | – | – | Addition of PhnX (blue) led to disappearance of PAA
